In patent US20240034813A1 (Janssen / Centocor, published 2024):

Key:
[1] = target: T1, recombinant cMet/HGFR with c-terminal His-tag, Cy5-labeled (UniProt P08581 25-932, limits assumed, Cy5 label (reacted with Cy5 Mono NHS Ester; sites not stated)); assay: competitive TR-FRET (Eu-amivantamab/Cy5-c-MET), EC50 ratio vs Reference Material; Ex. 11 drug product, 5 months at 5 C
T1 construct: Commercial protein; also called Cy5-c-MET; Cy5-labeled c-MET antigen; not shown: C-terminal His-tag
Description: (§1) In this procedure, varying concentrations of unlabeled bispecific EGFR-cMet antibody sample compete with donor fluorophore (Europium (Eu) chelate) labeled bispecific EGFR-cMet antibody for binding to an acceptor fluorophore (Cy5)-labeled c-MET antigen. Excitation of the donor fluorophore results in a transfer of energy to the bound acceptor fluorophore (FRET process). The resultant FRET is detected by emission of light at 665 nm using a microplate reader capable of measuring time-resolved fluorescence. Sample dose response curves are compared to the Reference Material (RM).
(§2) c-MET Binding Materials and Methods. Certified commercial cMet, a recombinant cMet/HGFR with c-terminal His-tag is reacted with certified commercial Cy5 Mono NHS Ester to produce Cy5-labeled c-MET. Validated bispecific EGFR-cMet antibody is reacted with certified commercial Europium (Eu) chelate to produce Eu labeled bispecific EGFR-cMet antibody. […] Fluorescence is then measured by spectrophotometry at 665 nm, plotted against antibody concentration and analyzed by a four-parameter logistic model. The antibody concentration required to obtain half of the maximum fluorescence response (EC50) is determined for RM, assay control and samples. The potencies of assay control and samples are calculated based on the ratio of the sample (or control) and RM EC50 values and reported as a percentage activity relative to the RM.

[2] = target: T2, recombinant human EGFR/ErbB1/HER1 with C-terminal His tag, Cy5-labeled (human, UniProt P00533 25-645, Cy5 label (reacted with Cy5 Mono NHS Ester; sites not stated)); assay: competitive TR-FRET (Eu-amivantamab/Cy5-EGFR), EC50 ratio vs Reference Material; Ex. 2 Formulation 2 (50 mM histidine), 3 months at 5 C
T2 construct: Commercial protein; also called Cy5-EGFR; Cy5-labeled EGFR antigen; not shown: C-terminal His tag
Description: (§3) In this procedure, varying concentrations of unlabeled bispecific EGFR-cMet antibody sample compete with donor fluorophore (Europium (Eu) chelate) labeled bispecific EGFR-cMet antibody for binding to an acceptor fluorophore (Cy5)-labeled EGFR antigen. Excitation of the donor fluorophore results in a transfer of energy to the bound acceptor fluorophore (FRET process). The resultant FRET is detected by emission of light at 665 nm using a microplate reader capable of measuring time-resolved fluorescence. Sample dose response curves are compared to the RM.
as §2, with “EGFR” for “c-MET”, “EGFR,” for “cMet,”, “human EGFR/ErbB1/HER1” for “cMet/HGFR”, “C-terminal His tag” for “c-terminal His-tag”, “EGFR.” for “c-MET.”, “Eu-labeled” for “Eu labeled”

[3] = target: T1, recombinant cMet/HGFR with c-terminal …; assay: competitive TR-FRET (Eu-amivantamab/Cy5-c-MET), EC50 ratio vs Reference Material; Ex. 12 drug product with rHuPH20, 5 months at 5 C
Description: as §1, §2

[4] = target: T2, recombinant human EGFR/ErbB1/HER1 with …; assay: competitive TR-FRET (Eu-amivantamab/Cy5-EGFR), EC50 ratio vs Reference Material; Ex. 2 Formulation 1 (10 mM histidine), 1 month at 40 C
Description: as §3
as §2, with “EGFR” for “c-MET”, “EGFR,” for “cMet,”, “human EGFR/ErbB1/HER1” for “cMet/HGFR”, “C-terminal His tag” for “c-terminal His-tag”, “EGFR.” for “c-MET.”, “Eu-labeled” for “Eu labeled”

[5] = target: T2, recombinant human EGFR/ErbB1/HER1 with …; assay: competitive TR-FRET (Eu-amivantamab/Cy5-EGFR), EC50 ratio vs Reference Material; Ex. 12 drug product with rHuPH20, 0 months, 25 C table
Description: as §3
as §2, with “EGFR” for “c-MET”, “EGFR,” for “cMet,”, “human EGFR/ErbB1/HER1” for “cMet/HGFR”, “C-terminal His tag” for “c-terminal His-tag”, “EGFR.” for “c-MET.”, “Eu-labeled” for “Eu labeled”

[6] = target: T2, recombinant human EGFR/ErbB1/HER1 with …; assay: competitive TR-FRET (Eu-amivantamab/Cy5-EGFR), EC50 ratio vs Reference Material; Ex. 2 Formulation 3 (acetate), 1 month at 40 C
Description: as §3
as §2, with “EGFR” for “c-MET”, “EGFR,” for “cMet,”, “human EGFR/ErbB1/HER1” for “cMet/HGFR”, “C-terminal His tag” for “c-terminal His-tag”, “EGFR.” for “c-MET.”, “Eu-labeled” for “Eu labeled”

[7] = target: T1, recombinant cMet/HGFR with c-terminal …; assay: competitive TR-FRET (Eu-amivantamab/Cy5-c-MET), EC50 ratio vs Reference Material; Ex. 12 drug product with rHuPH20, 6 months at 25 C
Description: as §1, §2

[8] = target: T2, recombinant human EGFR/ErbB1/HER1 with …; assay: competitive TR-FRET (Eu-amivantamab/Cy5-EGFR), EC50 ratio vs Reference Material; Ex. 12 drug product with rHuPH20, 6 months at 25 C
Description: as §3
as §2, with “EGFR” for “c-MET”, “EGFR,” for “cMet,”, “human EGFR/ErbB1/HER1” for “cMet/HGFR”, “C-terminal His tag” for “c-terminal His-tag”, “EGFR.” for “c-MET.”, “Eu-labeled” for “Eu labeled”

B1: amivantamab (bispecific antibody, human IgG1, kappa)
heavy 1: not shown
light 1: not shown
heavy 2: not shown
light 2: DIQMTQSPSSVSASVGDRVTITCRASQGISNWLAWFQHKPGKAPKLLIYAASSLLSGVPSRFSGSGSGTDFTLTISSLQPEDFATYYCQQANSFPITFGQGTRLEIKRTVAAPSVFIFPPSDEQLKSGTASVVCLLNNFYPREAKVQWKVDNALQSGNSQESVTEQDSKDSTYSLSSTLTLSKADYEKHKVYACEVTHQGLSSPVTKSFNRGEC
notes: The samples tested were high concentration (160 mg/mL) formulations, fresh or stored or stressed; also called JNJ-61186372; bispecific EGFR-cMet antibody
cMET Binding activity relative to Reference Material (%) [1]: 108%
EGFR Binding % activity relative to RM [2]: 96%
cMET Binding activity relative to Reference Material (%) [3]: 100%
EGFR Binding % activity relative to RM [4]: 69%
EGFR Binding activity relative to Reference Material (%) [5]: 92%
EGFR Binding % activity relative to RM [6]: 76%
cMET Binding activity relative to Reference Material (%) [7]: 103%
EGFR Binding activity relative to Reference Material (%) [8]: 54%
